Key:
[1] = biological target: T1, human LILRB2 expressed on cells (human, UniProt Q8N423 22-597); assay: cell-based or functional assay
human LILRA1 = biological target: T2, human LILRA1 (human, UniProt O75019 17-489); assay: flow cytometry, LILRA1 CHOs
T2 construct: Over-expressed on CHO-s cells; also called hLILRA1

human LILRA2 = biological target: T3, human LILRA2 (human, UniProt Q8N149 24-483); assay: flow cytometry, LILRA2 CHOs
T3 construct: Over-expressed on CHO-s cells; also called hLILRA2
T3 sequence (Q8N149 24-483 S135L limits assumed): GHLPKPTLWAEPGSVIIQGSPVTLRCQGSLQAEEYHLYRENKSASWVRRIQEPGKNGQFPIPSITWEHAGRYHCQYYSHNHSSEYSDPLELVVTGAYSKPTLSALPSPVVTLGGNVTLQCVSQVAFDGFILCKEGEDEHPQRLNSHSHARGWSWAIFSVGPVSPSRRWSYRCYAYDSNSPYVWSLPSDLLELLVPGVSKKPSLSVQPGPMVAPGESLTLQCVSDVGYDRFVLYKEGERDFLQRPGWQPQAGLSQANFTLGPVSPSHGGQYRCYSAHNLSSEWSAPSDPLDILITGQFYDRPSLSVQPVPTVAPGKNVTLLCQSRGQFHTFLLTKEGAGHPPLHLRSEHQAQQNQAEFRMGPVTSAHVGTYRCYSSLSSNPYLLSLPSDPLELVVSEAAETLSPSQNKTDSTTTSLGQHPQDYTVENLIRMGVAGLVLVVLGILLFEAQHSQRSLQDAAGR

human LILRA3 = biological target: T4, human LILRA3 (human, UniProt Q8N6C8 24-439); assay: flow cytometry, LILRA3 CHOs
T4 construct: Over-expressed on CHO-s cells; also called hLILRA3
T4 sequence (Q8N6C8 24-439 limits assumed): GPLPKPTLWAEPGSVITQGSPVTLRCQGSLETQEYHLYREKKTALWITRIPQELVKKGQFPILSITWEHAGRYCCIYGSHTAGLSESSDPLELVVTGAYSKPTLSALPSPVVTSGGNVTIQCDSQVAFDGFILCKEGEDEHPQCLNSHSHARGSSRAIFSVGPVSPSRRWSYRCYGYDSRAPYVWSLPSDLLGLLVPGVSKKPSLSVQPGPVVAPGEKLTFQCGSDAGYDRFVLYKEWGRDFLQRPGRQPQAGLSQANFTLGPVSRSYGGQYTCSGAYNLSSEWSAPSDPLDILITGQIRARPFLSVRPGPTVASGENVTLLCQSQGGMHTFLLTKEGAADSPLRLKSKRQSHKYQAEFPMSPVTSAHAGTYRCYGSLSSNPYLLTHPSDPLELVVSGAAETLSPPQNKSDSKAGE

human LILRA5 = biological target: T5, human LILRA5 (human, UniProt A6NI73 42-299); assay: flow cytometry, LILRA5 CHOs
T5 construct: Over-expressed on CHO-s cells; also called hLILRA5
T5 sequence (A6NI73 42-299 limits assumed): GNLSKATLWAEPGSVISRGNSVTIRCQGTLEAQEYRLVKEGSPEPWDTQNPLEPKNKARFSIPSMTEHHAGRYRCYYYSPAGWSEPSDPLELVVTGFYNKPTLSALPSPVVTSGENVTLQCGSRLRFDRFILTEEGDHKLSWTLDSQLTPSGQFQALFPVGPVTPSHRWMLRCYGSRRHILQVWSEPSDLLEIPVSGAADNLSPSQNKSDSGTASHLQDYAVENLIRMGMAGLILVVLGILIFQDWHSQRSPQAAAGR

human LILRA6 = biological target: T6, human LILRA6 (human, UniProt Q6PI73 24-481); assay: flow cytometry, LILRA6 CHOs
T6 construct: Over-expressed on CHO-s cells; also called hLILRA6
T6 sequence (Q6PI73 24-481 limits assumed): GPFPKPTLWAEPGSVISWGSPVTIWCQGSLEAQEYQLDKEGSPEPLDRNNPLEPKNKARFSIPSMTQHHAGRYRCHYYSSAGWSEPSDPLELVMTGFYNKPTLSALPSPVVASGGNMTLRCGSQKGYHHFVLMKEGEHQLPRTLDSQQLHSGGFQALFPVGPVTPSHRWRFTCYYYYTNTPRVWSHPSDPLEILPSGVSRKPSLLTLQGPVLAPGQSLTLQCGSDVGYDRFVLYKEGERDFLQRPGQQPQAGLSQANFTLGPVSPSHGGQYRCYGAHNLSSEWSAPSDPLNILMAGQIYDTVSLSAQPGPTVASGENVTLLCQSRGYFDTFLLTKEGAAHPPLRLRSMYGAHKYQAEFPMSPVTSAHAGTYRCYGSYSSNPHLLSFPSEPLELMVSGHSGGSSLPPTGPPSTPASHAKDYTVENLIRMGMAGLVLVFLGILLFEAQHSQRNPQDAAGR

human LILRB1 = biological target: T7, human LILRB1 (human, UniProt Q8NHL6 24-650); assay: flow cytometry, LILRB1 CHOs
T7 construct: Over-expressed on CHO-s cells; also called hLILRB1
T7 sequence (Q8NHL6 24-650 limits assumed): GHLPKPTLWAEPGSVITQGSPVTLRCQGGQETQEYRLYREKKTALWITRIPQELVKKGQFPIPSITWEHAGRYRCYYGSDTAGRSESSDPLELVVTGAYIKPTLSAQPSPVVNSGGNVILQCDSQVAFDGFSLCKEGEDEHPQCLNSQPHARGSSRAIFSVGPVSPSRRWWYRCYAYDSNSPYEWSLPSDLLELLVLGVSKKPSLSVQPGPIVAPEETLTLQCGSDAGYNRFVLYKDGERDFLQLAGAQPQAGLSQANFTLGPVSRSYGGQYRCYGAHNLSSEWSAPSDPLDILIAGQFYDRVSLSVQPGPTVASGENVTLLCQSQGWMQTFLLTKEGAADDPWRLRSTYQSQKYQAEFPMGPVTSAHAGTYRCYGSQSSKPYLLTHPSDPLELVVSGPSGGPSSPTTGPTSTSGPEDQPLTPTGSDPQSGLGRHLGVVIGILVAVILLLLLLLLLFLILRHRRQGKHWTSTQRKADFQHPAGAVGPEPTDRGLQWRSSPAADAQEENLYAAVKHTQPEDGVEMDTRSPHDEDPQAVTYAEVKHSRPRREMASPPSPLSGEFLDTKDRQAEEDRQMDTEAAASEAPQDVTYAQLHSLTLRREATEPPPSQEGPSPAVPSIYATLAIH

[2] = biological target: T1, human LILRB2 expressed on cells; assay: flow cytometry, LILRB2 CHOs
human LILRB3 = biological target: T8, human LILRB3 (human, UniProt O75022 24-631); assay: flow cytometry, LILRB3 CHOs
T8 construct: Over-expressed on CHO-s cells; also called hLILRB3

human LILRB4 = biological target: T9, human LILRB4 (human, UniProt Q8NHJ6 22-448); assay: flow cytometry, LILRB4 CHOs
T9 construct: Over-expressed on CHO-s cells; also called hLILRB4

human LILRB5 = biological target: T10, human LILRB5 (human, UniProt O75023 24-590); assay: flow cytometry, LILRB5 CHOs
T10 construct: Over-expressed on CHO-s cells; also called hLILRB5
T10 sequence (O75023 24-590 P542R limits assumed): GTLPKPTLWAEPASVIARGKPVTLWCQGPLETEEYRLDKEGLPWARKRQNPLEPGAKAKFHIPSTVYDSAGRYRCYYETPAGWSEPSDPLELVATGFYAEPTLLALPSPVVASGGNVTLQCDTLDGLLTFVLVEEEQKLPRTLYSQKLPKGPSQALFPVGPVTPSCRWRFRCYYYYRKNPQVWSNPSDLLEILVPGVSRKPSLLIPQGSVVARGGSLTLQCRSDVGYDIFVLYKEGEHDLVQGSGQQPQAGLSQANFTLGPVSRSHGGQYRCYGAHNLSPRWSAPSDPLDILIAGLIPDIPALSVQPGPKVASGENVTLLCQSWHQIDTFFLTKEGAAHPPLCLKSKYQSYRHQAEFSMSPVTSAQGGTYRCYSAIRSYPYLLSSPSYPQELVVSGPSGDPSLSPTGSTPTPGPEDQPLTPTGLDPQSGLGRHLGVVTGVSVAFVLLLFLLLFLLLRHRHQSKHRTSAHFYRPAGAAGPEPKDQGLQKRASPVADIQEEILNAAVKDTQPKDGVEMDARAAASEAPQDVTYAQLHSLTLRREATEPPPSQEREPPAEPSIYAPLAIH

[3] = biological target: T1, human LILRB2 expressed on cells; assay: blocking of HLA-G tetramer on LILRB2 CHOs, flow cytometry, mAb 10 ug/mL
Protocol: (§1) In the secondary screen, 1×10⁵ CHO-s cells over-expressing human LILRB2 were plated in 96-well round-bottom tissue culture-treated plate and washed twice with 1×DPBS (Gibco) and incubated with 10 μg/mL primary antibody (anti-LILRB2 mAbs or control) prepared in 50 μL FACS buffer (1×DPBS containing 2% HI-FBS (Sigma)+0.05% Sodium Azide). After incubation with mAbs for 30 minutes at 4° C., cells were washed twice in FACS buffer and then resuspended in 50 μL of FACS buffer containing 5 μg/mL APC-conjugated HLA-A2 or HLA-G tetramer (Fred Hutch). Cells were incubated protected from light for 30-60 minutes at 4° C. After incubation with tetramer, cells were washed in FACS buffer and re-suspended in fix buffer (1.5% paraformaldehyde diluted in 1×DPBS). Samples were analyzed using the Celesta flow cytometer analyzer (BD Biosciences). Data represent percent tetramer blocked by mAbs relative to tetramer alone, calculated according to the following equation: […]

[4] = biological target: T1, human LILRB2 expressed on cells; assay: blocking of HLA-A2 tetramer on LILRB2 CHOs, flow cytometry, mAb 10 ug/mL
Protocol: as §1

T2 sequence (O75019 17-489 limits assumed): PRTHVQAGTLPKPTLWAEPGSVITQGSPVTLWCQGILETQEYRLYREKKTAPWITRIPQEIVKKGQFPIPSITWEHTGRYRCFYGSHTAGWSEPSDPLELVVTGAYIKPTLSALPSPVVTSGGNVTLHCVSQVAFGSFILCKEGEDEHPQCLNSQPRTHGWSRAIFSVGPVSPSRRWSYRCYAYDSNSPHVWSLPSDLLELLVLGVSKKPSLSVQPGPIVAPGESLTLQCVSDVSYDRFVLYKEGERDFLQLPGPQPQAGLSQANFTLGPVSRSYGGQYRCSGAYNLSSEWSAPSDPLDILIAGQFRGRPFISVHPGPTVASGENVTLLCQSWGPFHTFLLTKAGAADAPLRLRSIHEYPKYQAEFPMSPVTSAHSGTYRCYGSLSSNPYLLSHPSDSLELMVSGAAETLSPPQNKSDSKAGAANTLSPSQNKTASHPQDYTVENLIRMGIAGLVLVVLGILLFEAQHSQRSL
T1 sequence (Q8N423 other isoform, or with tags, fused parts or gaps limits assumed): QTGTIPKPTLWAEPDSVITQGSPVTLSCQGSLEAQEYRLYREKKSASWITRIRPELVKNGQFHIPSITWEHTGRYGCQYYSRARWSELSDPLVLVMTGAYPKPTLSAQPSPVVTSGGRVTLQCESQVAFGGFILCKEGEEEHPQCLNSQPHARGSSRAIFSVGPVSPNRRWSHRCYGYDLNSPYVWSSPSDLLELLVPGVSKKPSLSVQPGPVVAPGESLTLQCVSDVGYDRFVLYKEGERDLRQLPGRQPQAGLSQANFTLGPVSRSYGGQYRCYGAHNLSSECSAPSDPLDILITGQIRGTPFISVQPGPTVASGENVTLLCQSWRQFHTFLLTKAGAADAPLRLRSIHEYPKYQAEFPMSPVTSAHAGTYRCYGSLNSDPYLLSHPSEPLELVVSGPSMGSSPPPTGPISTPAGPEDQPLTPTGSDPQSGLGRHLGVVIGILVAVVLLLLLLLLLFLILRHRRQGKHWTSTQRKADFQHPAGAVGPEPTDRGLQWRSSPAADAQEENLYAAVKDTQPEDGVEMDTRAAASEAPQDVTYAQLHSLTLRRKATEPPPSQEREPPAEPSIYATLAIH

Binder | CCL2 production (fold over LPS alone) [1] [fold over LPS alone] | IL-6 production (fold over LPS alone) [1] [fold over LPS alone] | IL-10 production (fold over LPS alone) [1] [fold over LPS alone] | TNFa production (fold over LPS alone) [1] [fold over LPS alone] | binding (fold over iso) (human LILRA1) | binding result (human LILRA1) | binding (fold over iso) (human LILRA2) | binding result (human LILRA2) | binding (fold over iso) (human LILRA3) | binding result (human LILRA3) | binding (fold over iso) (human LILRA5) | binding result (human LILRA5) | binding (fold over iso) (human LILRA6) | binding result (human LILRA6) | binding (fold over iso) (human LILRB1) | binding result (human LILRB1) | binding (fold over iso) [2] [fold over iso] | binding (fold over iso) (human LILRB3) | binding result (human LILRB3) | binding (fold over iso) (human LILRB4) | other results
J-03 (antibody, human IgG4 S228P, kappa, V domains shown, Human IgG4 chimera of murine origin) VH: QVQLQQSGAELVRPGASVTLSCKASGYKFTDYEMHWVKQTPVHGLEWIGAIDPETNGTAYNKKFKGKAILTADKSSSTAYMELRSLTSEDSAVYYCTRGDYDFSAWFAYWGQGTLVTVSA VL: DIVLTQSPASLAVSLGQRATISCRASESVDNYDISFMHWYQQKPGQPPKLLIYRASNLESGIPARFSGSGSRTDFTLTINPVETDDVATYYCQQSNKDPRTFGGGTKLEIKR | 0.95 | 1.1 | 0.97 | 1.27 | 0.89 | no binding | 1.58 | no binding | 1.05 | no binding | 0.96 | no binding | 1.23 | no binding | 0.94 | no binding | 30.1 | 0.97 | no binding | 1.02 | binding result (human LILRB4): no binding; binding (fold over iso) (human LILRB5): 1 fold over iso; binding result (human LILRB5): no binding; HLA-G:LILRB2 CHOs blocking (% blocked) [3]: -156 % blocked; HLA-A2:LILRB2 CHOs blocking (% blocked) [4]: -208 % blocked
J-04 (antibody, human IgG4 S228P, kappa, V domains shown, Human IgG4 chimera of murine origin) VH: QVQLQQSGAELVRPGASVTLSCKASGYTFADYEIHWVKQTPVHGLEWIGAIDPETGGTAYNQKFKGKAILTADKSSSTAYMELRSLTSEDSAVYYCTRYYDYDDAMDYWGQGTSVTVSS VL: QIVLTQSPAIMSASPGEKVTMTCSASSSVSFMHWYQQKSGTSPKRWIYGTSKLASGVPARFSGSGSGTSYSLTISSMEAEDAATYYCQQWNGNPFTFGSGTKLETKR | 1 | 1.36 | 0.95 | 1.18 | 0.88 | no binding | 1.62 | no binding | 0.93 | no binding | 0.74 | no binding | 1.3 | no binding | 0.95 | no binding | 33.8 | 0.9 | no binding | 0.83 | binding result (human LILRB4): no binding; binding (fold over iso) (human LILRB5): 1.08 fold over iso; binding result (human LILRB5): no binding; HLA-G:LILRB2 CHOs blocking (% blocked) [3]: -255 % blocked; HLA-A2:LILRB2 CHOs blocking (% blocked) [4]: -319 % blocked

— patent publication US20200339690A1 (JOUNCE THERAPEUTICS, published 2020)
